Measured values from paper PMC7749421, “Functional expression of human prostaglandin E2 receptor 4 (EP4) in E. coli and characterization of the binding property of EP4 with Gα proteins” (Biochemistry and Biophysics Reports, 2020).

What was measured:
[1] = molecular target: Gαi2 (alpha subunit of Gi protein) (UniProt P04899); test: ELISA; Gα (10 μg/ml) immobilised in a high-binding 96-well plate, blocked with 5% skimmed milk; 5-1000 nM P9-EP4 in sarkosyl or in APG added; detected with anti-P9 antibody, HRP anti-mouse IgG and TMB; 25 °C
[2] = molecular target: Gαi1 (alpha subunit of Gi protein) (UniProt P63096); test: as above
[3] = molecular target: Gαs1 (alpha subunit of Gs protein) (UniProt P63092); test: as above
[4] = molecular target: Gαi3 (alpha subunit of Gi protein) (UniProt P08754); test: as above
[5] = molecular target: T1, human prostaglandin E2 receptor 4 (EP4) (Homo sapiens, UniProt P35408); test: biochemical
T1 construct: gene PTGER4
T1 sequence (P35408 1-354): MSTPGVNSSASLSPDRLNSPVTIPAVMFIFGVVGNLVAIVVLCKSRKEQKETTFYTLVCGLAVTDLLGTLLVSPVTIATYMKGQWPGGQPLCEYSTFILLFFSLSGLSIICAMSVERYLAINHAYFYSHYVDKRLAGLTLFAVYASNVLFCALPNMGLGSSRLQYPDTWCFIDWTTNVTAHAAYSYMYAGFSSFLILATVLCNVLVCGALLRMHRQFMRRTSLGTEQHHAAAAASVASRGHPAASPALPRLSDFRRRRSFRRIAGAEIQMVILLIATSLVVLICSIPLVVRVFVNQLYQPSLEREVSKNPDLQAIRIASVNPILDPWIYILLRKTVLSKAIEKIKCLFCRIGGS

Sequence of P9-EP4 (human prostaglandin E2 receptor 4, amino acids 1-354, fused to the C-terminus of the P9 envelope protein of phage phi6, with a C-terminal His6 tag) (P35408 1-354 limits assumed): as the sequence (P35408 1-354) above
Sequence of Gαi1 (alpha subunit of Gi protein) (P63096 whole entry): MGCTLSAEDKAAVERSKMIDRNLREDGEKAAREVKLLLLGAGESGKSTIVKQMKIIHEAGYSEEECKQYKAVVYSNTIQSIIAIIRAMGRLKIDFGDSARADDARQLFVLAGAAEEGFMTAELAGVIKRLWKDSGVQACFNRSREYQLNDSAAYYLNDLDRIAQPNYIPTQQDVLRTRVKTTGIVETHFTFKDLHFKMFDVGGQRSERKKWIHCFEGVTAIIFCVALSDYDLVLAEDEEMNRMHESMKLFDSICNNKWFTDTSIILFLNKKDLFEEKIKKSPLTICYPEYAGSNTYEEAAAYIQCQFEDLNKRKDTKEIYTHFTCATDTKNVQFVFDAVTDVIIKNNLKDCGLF
Sequence of Gαi3 (alpha subunit of Gi protein) (P08754 whole entry): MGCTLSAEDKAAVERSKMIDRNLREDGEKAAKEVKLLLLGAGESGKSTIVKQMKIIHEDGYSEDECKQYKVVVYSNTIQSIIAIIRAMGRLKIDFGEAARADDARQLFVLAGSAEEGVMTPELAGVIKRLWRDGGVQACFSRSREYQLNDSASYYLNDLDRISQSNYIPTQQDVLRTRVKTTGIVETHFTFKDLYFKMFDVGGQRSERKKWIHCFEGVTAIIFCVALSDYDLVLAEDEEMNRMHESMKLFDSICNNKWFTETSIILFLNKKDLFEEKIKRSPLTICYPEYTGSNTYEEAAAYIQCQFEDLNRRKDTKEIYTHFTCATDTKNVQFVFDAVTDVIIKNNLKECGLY
Sequence of Gαi2 (alpha subunit of Gi protein) (P04899 whole entry): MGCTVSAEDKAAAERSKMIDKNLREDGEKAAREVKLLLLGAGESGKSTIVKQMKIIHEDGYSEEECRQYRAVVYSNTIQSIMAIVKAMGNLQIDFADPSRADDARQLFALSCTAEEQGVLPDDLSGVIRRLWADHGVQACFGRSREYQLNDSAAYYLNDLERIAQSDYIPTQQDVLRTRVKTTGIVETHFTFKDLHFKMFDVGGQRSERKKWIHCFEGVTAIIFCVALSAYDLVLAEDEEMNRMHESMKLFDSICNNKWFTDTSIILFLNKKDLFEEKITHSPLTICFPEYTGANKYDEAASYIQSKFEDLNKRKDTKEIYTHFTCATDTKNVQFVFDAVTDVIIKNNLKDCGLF
Sequence of Gαs1 (alpha subunit of Gs protein) (P63092 whole entry): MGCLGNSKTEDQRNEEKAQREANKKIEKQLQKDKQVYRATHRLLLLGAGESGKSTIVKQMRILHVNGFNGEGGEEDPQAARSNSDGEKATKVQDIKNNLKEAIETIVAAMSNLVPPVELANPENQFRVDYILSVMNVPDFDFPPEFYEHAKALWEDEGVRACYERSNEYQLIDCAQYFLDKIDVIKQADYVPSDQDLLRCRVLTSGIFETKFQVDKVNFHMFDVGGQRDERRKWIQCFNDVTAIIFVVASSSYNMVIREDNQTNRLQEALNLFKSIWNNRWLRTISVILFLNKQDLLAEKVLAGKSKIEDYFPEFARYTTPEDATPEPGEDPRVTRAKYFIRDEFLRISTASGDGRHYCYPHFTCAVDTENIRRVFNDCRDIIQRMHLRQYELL

| Molecule | Kd [1] [nM] | Kd [2] [nM] | Kd [3] [nM] | Kd [4] [nM] | Kd [5] [nM] |
| --- | --- | --- | --- | --- | --- |
| P9-EP4 (human prostaglandin E2 receptor 4, amino acids 1-354, fused to the C-terminus of the P9 envelope protein of phage phi6, with a C-terminal His6 tag) (from UniProt P35408 1-354) | 175 | 50 | 88 | 214 | – |
| CC(C(=O)Nc1cc(C#N)ccc1CCCC(=O)O)c1ccc(F)c2ccccc12 (centres unmarked) [ONO-AE3-208] | – | – | – | – | 680 ± 150 |
